Here are results for 1 molecule from publication PMC3482342 (Journal of molecular biology, 2011).

The assay deals with T1, Full-length MukF (E. coli, UniProt P60293 1-440).
T1 sequence (looked up): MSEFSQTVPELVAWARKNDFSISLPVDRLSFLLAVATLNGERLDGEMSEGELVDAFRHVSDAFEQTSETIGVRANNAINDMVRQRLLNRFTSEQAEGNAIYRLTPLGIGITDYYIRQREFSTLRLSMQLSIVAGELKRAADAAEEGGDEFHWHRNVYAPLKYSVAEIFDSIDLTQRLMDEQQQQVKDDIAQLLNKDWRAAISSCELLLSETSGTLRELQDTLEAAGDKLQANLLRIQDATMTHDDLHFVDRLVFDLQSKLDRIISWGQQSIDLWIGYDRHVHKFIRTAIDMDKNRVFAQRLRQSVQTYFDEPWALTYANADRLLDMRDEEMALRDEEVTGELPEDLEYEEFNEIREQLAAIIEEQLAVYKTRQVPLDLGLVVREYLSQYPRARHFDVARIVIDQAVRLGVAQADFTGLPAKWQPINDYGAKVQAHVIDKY
Briefly: AUC.

B1: MukE-DRER (MukE-D196A/R198A/E199S/R202S) (natural protein, E. coli, UniProt P22524 10-234, looked up)
chain: MPVKLAQALANPLFPALDSALRSGRHIGLDELDNHAFLMDFQEYLEEFYARYNVELIRAPEGFFYLRPRSTTLIPRSVLSELDMMVGKILCYLYLSPERLANEGIFTQQELYDELLTLADEAKLLKLVNNRSTGSDVDRQKLQEKVRSSLNRLRRLGMVWFMGHDSSKFRITESVFRFGADVRAGDAPASAQSRLIRDGEAMPIENHLQLNDETEENQPDSGEEE
What is called stoichiometry N is the number of molecules, sites or subunits per partner or assembly. For the molecule B1, the “stoichiometry N” value is 2 MukE per MukF.
